# Source: IntAct's records for PubMed 30017192
# Legend:
# [1] = target: kpca_human PRKCA (UniProt P17252)
# [2] = target: kapca_human PRKACA (UniProt P17612)
substance,measurement,setting,value
"Serine/threonine-protein kinase pim-1 (Homo sapiens), P11309-2 K158R",effect of a mutation on the interaction,[1],with no effect
same,effect of a mutation on the interaction,[2],with no effect
